Assay: yeast display, Sf9 membrane polyspecificity reagent, FACS + sequencing; frameworks hold sequencing errors
Summary of the method: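 Using colony PCR, genes from sorted yeast display clones were amplified, then sequenced on MiSeq at 2 × 250 and filtered by CDR length. The clones had been stained with 10% biotinylated, detergent-solubilized Sf9 membrane reagent for 1 hour at 4 °C and sorted by FACS into low and high (top ~1%) gates on anti-HA and streptavidin fluorescence. Polyreactivity labels come from the gate of origin.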

Sequence	polyreactivity (PSR sort gate)
QVQLVESGGGLVQAGGSLRLSCAASGSTIQYYTMGWYRQAPGKERELVASITSGDSTNYADSVKGRFTISRDNAKNTVYLQMNSLKPEDTAVYYCARDRVSTQLQSSPAVSELYYWGQGTQVNVSS	low polyreactivity
QVQLVESGGGLVQAGGSLRLSCAASGSTIRNYAMGWYRQAPGKERELVAAISSGGRTYYADSVKGRFTISRDNAKNTVYLQMNSLKPEDTAVYYCYTPYTVRGRYSYDYWGQGTQVTVSS	high polyreactivity
QVQLVESGGGLVQAGGSLRLSCAASGSTIRQNAMGWSSQAPGKEMELVAAITYTGGSTYYADSVKGRYTISRDNAKNTVYLEMNSLKPEDTSVYYCAATYLSYYHGWVNYWGEGTQVTVSS	high polyreactivity
QVQLVESGGGLVQAGGSLRLSCAASGSTIRRYAMGWSRQAPGKERELVAAITRSGGSTYYADSVKGRFTISRDNAKNTVYLQMNSLKPEDTEVYYCAADTGTGLDWGQGTQVTVSS	high polyreactivity
QVQLVESGGGLVQAGGSLRLSCAASGSTIRYYVKGWYRQAPGKERELVAAISYNGGSTYYADSVKGRFTISRDTAKNTVYLHMNSVTPEDTAVYYCAADAPYRSSGKDYWGQGTQVTVSS	high polyreactivity
QVQLVESGGGLVQAGGSLRLSCAASGSTISVNAMGWYRQAPGKERELVAAISDRGGSTYYADSVKGRFTISRDNAKNTVYLQMNSLKPEDTAVYYCAALFLRVTYFRLGLYSYEYWGQGTQVTVSS	low polyreactivity
QVQLVESGGGLVQAGGSLRLSCAASGSTITYNAMGWYRQAPGKERELVAAITVSDGSTYYADSVKGRFTISRDNAKNTVYLQMNSLKPEDTAVYYCNKDRGHPFKYDYWGQGTQVTVSS	low polyreactivity
QVQLVESGGGLVQAGGSLRLSCAASGSTIVGYAMGWYRQAPGKERELVAAISRTGASTYYADSVKGRFTISRDNAKNTVYLQMISLKPEDTAVYYCAAGREYWGVTREYWGQGTQVTVSS	high polyreactivity
QVQLVESGGGLVQAGGSLRLSCAASGSTIVQNAMGWYRQAPAKERELVAAISRTGGSTYYADSVKGRFTISRDNAKNTVYLQMNSLKPEDTAVYYCAKRPPHYSWPKLIEFGSWGQGNQVTVSS	high polyreactivity
QVQLVESGGGLVQAGGSLRLSCAASGSTIWPYTMGWYRQAPGKERELVAAITLRGGTTYYADSVKGRFTISRDNAKNTVYLQMNSLKPEDTVVYYCNATSGNPASTAWMNYWGQGTQVTVSS	low polyreactivity
QVQLVESGGGLVQAGGSLRLSCAASGSTIWRNTMGWYRQAPGKERELVADIRNVGSTYYADSVKGLFTISRDNAKNTVYLQMNSLKPEDTAVYYCYARWRFLYDYWGQGTQVTVSS	high polyreactivity
QVQLVESGGGLVQAGGSLRLSCAASGSTIYDYTMGWYRQAPGKERELVAAISSDGSTYYADSVKGRFTISRDNAKITVYLKMNSLKPEDTAVYYCNADAGFLSLRGYDYWGQGTQVTVSS	low polyreactivity
QVQLVESGGGLVQAGGSLRLSCAASGSTIYHYTMECYRQAPGKERELVAAITYSGGRTYYADSVKGRFTISRDNAKNTVYLQMNSLKPEDTAVYYCAATYSTPGAGYYHYWGQGTQVTVSS	high polyreactivity
QVQLVESGGGLVQAGGSLRLSCAASGSTIYRYAMGWYRQAPGKERELVATISRTGARTNYADSVKGRFTISRDNAKNTVYLQMNSLKPEDTAVYYCAASAPYIYYWGQGTQVTVSS	high polyreactivity
QVQLVESGGGLVQAGGSLRLSCAASGSTIYYNAMGWYRQAPGKERELVATITSAGRTNYADSVKGRFTISRDNAKNTVSLLMNSLKPEDTAVYYCNARYRLSRYNYWGQGTQVNVSS	low polyreactivity
QVQLVESGGGLVQAGGSLRLSCAASGSTLAGYAMGWYRPAPGKERELVAAIDWTGGSTTYADSVKGRFTISRDNAKNTVYLQMNSLKPEDTAVYYCNVDLGVNGDYWGQGTQVTVSS	low polyreactivity
QVQLVESGGGLVQAGGSLRLSCAASGSTLAIYAMGWYRQAPGKEREWVAAISRSGGTTYYADSVKGRFTISRDNAKNTVYLQMNSLKPEDTAVYYCYPYFWYPDGYTYDYWGQGTQVTVSS	high polyreactivity
QVQLVESGGGLVQAGGSLRLSCAASGSTLAPYVMGWYRQAPGKERELVSVISTRTGRTSYADSVKGRFTLSRDNAKNTVYLQMNSLKPEDTAVYYCNAQWVSWWSLYDYWGQGTQVTVSS	high polyreactivity
QVQLVESGGGLVQAGGSLRLSCAASGSTLATYTMGWYRQAPGKERELVAAISFGGSTYYAYSVKGRFTISRDNAKNTVYLQMNSLKPEDTAVYYCAVYGDSYWGAYYYSDGYWGQGTQVTVSS	low polyreactivity
QVQLVESGGGLVQAGGSLRLSCAASGSTLDSYTMGWYRQAPGKERELVATISTSGGSTYYADAVKGRFTISRDNAKNTVSIQMNSLKPEDTAVYYCKADAPFGPNRYNSWGQGTQVTVSS	low polyreactivity
QVQLVESGGGLVQAGGSLRLSCAASGSTLDTYAMGWYRQAPGKERELVAGITWSGGSTYYADSVKGRFTISRDNAKNTVYLQMNSLKPEDTAVYYCAAYSPYGPRYDYWGQGTQVTVSS	low polyreactivity
QVQLVESGGGLVQAGGSLRLSCAASGSTLEFNARGWYRQAPGKERELVAVINRSDGSTYYAASVKGRFTISRDNAKNTVYLQMNSLKPEDTAVYYCAADRHQVSVISTEDYWGQGTQVTVSS	low polyreactivity

Sequence	polyreactivity (PSR sort gate)
QVQLVESGGGLVQAGGSLRLSCAASGSTLEYYAMGWYRQAPGKERELVAAITYSGGDTYYADSVKGRFTISRDNAKNTVYLQMNSLKPEDTAVYYCAAEALYYPYETYDYWGQGTQVTVSS	high polyreactivity
QVQLVESGGGLVQAGGSLRLSCAASGSTLFAYAMGWYRQAPGKERELVAAITSGASTNYADSVKGRFTISRDNAKNTVYLQMNSLKPEDTAVYYCAKDVSGTNPDYDYWGQGTQVTVSS	low polyreactivity
QVQLVESGGGLVQAGGSLRLSCAASGSTLFFYTMGWYRQAPGKERELVAAITRGGSTYYADSVKGRFTISRDNAKNTVYLQLNSLKPEDTAVYYCAAPYVRPKKVYNYDYWGQGTQVTVSS	high polyreactivity
QVQLVESGGGLVQAGGSLRLSCAASGSTLGANAMGWYRQAPGKERELVAAISISDGDTYYADSVKGRFTISRDYAKNTVYLQMNSLKPEDTAVYYCAADYWFQYRWYDYWGQGTQVTVSS	high polyreactivity
QVQLVESGGGLVQAGGSLRLSCAASGSTLGAYAMGWYRQAPGKERELVAAISRSGGNTYYADSVKGRFTISRDNAKNTVYLQMNSLKPEDTAVYYCAAVRLYRYDYWGQGTQVTVSS	low polyreactivity
QVQLVESGGGLVQAGGSLRLSCAASGSTLGKYAMGWYRQAPGKERELVARITLNGGRTYYADSVKGRFTISRDNAKNTVYLQMNSLKPEDTAVYYCAKSLPHSTSRDYWGQGTQVTVSS	low polyreactivity
QVQLVESGGGLVQAGGSLRLSCAASGSTLGRNAMGWYRQAPGKERELVASITRSGGSTYYADSVKGRFTISRDNAKNTVYLQMNSLKPEDTAVYYCAAEVQGQVGEFDYWGQGTQVTVSS	low polyreactivity
QVQLVESGGGLVQAGGSLRLSCAASGSTLGRNAMVWYRQAPGKERELVAAITTSGGSTYYADSVKGRFTISRDNAKNTVYLQMNSLKPEDTAVYYCAARTGYRNYGYWGQGSQVTVSS	high polyreactivity
QVQLVESGGGLVQAGGSLRLSCAASGSTLGSNAMGWYRQAPGKERELVAAITWSGGTTYYADSVKGRFTISRDNAKNTVYLQMISLKPEDTAVYYCATGQSVIYRYEYWGQGTKVTVSS	low polyreactivity
QVQLVESGGGLVQAGGSLRLSCAASGSTLGYNAMGWYRQATGKERELVAGISRNGGSTFYADSVKGRFTISRDYAKYTLYLQMNSLKPEDTAVYYCARYYTHSGGFRVRIYYYWGQATQVTVSS	low polyreactivity
QVQLVESGGGLVQAGGSLRLSCAASGSTLGYNVMAWYRQAPGKERELVAAISGEGSTNYADSVKGRFTISRDNAKNTVYLQMNSLKPEDTAVYYCAADSRDDYEYWRQGTQVTVSS	low polyreactivity
QVQLVESGGGLVQAGGSLRLSCAASGSTLGYNVMGCYIQAPGKERELVAAISGDGSTNYADSVKGRFTISRDNAKNTVYLQMNSLKPEDTAVYYCAARPGWFAGYEYWGQGTQVTVSS	low polyreactivity
QVQLVESGGGLVQAGGSLRLSCAASGSTLGYYAMGWYRQAPGKERELVAAIRYSDGNTYYADSVKGRFTISRDNAKNTVYLQMNSLKPEDTAVYYCAADGGYYGREYWGQGTQVTVSS	high polyreactivity
QVQLVESGGGLVQAGGSLRLSCAASGSTLGYYTMGWYRQAPGKERELVAAIDWSGGSTYYADSVKGRFTISRDNAKNTVYLQMNSLKPEDTAVYYCAVDYTYSYVDYWSEYDYWGQGTQVTVSS	low polyreactivity
QVQLVESGGGLVQAGGSLRLSCAASGSTLHSYAMGWYRQAPGKERELVAAISFRGGSTYADSVKGRFTISRDNAKNTVYLQMNSLKPEDTAVYYCAAYSLYTMYWGQGTQVTVSS	low polyreactivity
QVQLVESGGGLVQAGGSLRLSCAASGSTLIFYAMGWYRQAPGKERELVAAIRFSGGTTYYADSVKGRFTISRDNAKNTVYLQMNSLKPEDTAVYDCAADPRPAYGYYYLYADFDYWGLGTQVTVSS	low polyreactivity
QVQLVESGGGLVQAGGSLRLSCAASGSTLIGYAMGWYRQAPGKERELVAVINRSGGRTYYADSVKGRFTISRDNSKNTVYLQMNSLKPEDTAVYYCAARPTALSYDSWGQGTQVTVSS	high polyreactivity
QVQLVESGGGLVQAGGSLRLSCAASGSTLKLYVMGWYRQAPGKERELVAAISYSGGSTNYADSVKGRFTISRDNAKNTVYLQMNSLKPEDTAVYYCAAAGYKWYYKYYYWGQGTQVTVSS	high polyreactivity
QVQLVESGGGLVQAGGSLRLSCAASGSTLKSNVMGWYRQAPGKERELVAAISSSGGSTSYADSVKGRFTISRDNAKNTVYLLMKSLNPEDTAVYYCAARMGRYFWNSGVDYWGQGTQVTVSS	high polyreactivity
QVQLVESGGGLVQAGGSLRLSCAASGSTLLGYTMGWYRQAPGKERELVAVISWSGGGTYYADSVKGRFTISRDNAKNTVYLQMNSLKPEDTAVYYCAAETVLGYWYYRKYYYWGQGTQVTVSS	high polyreactivity
QVQLVESGGGLVQAGGSLRLSCAASGSTLLSYTMGWYRQAPGKERELVASITTSGGSTYYADSVKGRFTISRDNAKNTVYLQMNSLKPEDTAVYYWGQGTQVTVSS	low polyreactivity

Reference: the nanobody polyreactivity screen of Harvey et al. (2022)
